Assays:
Experiment in all cases: ELISA: SEAP-His proteins (1 nM) captured on anti-6-His antibody, antibody B 10 µg/mL with human IgG 100 µg/mL, HRP anti-human IgG, OD450 as % of human EphA4-SEAP-His
[1] = molecular target: T1, human EphA7 extracellular region-SEAP-His protein (human, UniProt Q15375 28-555)
T1 construct: extracellular domain; also called Eph receptor extracellular region-SEAP-His protein; not shown: secretory alkaline phosphatase (SEAP); histidine tag
T1 sequence (looked up): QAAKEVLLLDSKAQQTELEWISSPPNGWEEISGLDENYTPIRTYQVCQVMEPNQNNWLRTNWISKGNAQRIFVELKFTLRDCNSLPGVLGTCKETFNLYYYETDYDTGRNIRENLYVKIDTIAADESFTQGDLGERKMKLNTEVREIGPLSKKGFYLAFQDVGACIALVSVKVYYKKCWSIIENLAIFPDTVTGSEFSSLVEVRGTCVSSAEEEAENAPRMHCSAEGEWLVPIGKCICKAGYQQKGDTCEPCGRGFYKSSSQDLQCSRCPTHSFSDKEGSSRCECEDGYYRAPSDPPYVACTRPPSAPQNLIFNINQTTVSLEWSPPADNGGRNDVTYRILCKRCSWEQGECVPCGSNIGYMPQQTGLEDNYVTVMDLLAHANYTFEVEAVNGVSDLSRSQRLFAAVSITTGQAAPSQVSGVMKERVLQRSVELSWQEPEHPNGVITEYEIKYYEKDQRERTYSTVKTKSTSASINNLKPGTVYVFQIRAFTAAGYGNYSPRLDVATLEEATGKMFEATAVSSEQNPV

[2] = molecular target: T2, human EphA2 extracellular region-SEAP-His protein (human, UniProt P29317 24-537)
T2 construct: extracellular domain; also called Eph receptor extracellular region-SEAP-His protein; not shown: secretory alkaline phosphatase (SEAP); histidine tag
T2 sequence (P29317 24-537): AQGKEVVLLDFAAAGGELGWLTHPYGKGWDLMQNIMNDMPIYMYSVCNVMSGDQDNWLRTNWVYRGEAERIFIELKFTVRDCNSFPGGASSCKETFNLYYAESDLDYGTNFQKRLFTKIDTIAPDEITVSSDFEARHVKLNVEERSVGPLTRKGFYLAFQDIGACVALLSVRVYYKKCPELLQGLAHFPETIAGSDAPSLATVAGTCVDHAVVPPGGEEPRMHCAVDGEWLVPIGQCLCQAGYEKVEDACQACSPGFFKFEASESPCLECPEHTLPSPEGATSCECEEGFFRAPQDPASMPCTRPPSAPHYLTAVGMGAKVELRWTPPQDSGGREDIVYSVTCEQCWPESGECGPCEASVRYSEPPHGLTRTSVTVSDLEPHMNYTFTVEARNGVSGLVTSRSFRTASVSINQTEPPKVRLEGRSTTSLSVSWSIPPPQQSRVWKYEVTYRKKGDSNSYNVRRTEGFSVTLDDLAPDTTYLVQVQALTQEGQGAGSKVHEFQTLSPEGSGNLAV

[3] = molecular target: T3, human EphA3 extracellular region-SEAP-His protein (human, UniProt P29320 21-541)
T3 construct: extracellular domain; also called Eph receptor extracellular region-SEAP-His protein; not shown: secretory alkaline phosphatase (SEAP); histidine tag
T3 sequence (looked up): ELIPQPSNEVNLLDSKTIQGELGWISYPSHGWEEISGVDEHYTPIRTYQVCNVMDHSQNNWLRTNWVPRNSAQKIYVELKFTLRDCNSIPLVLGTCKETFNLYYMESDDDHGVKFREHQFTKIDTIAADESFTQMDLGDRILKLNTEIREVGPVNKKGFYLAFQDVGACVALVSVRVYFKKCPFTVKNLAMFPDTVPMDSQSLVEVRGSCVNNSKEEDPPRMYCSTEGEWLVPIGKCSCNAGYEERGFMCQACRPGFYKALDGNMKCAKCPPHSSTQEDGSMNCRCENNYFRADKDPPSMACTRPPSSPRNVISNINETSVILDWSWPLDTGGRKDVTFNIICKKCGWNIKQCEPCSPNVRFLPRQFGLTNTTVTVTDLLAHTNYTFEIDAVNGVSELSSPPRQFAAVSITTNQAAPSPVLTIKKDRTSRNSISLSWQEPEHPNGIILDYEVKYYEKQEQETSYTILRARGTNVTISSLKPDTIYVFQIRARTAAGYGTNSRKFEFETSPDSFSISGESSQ

[4] = molecular target: T4, human EphB3 extracellular region-SEAP-His protein (human, UniProt P54753 34-559)
T4 construct: extracellular domain; also called Eph receptor extracellular region-SEAP-His protein; not shown: secretory alkaline phosphatase (SEAP); histidine tag
T4 sequence (looked up): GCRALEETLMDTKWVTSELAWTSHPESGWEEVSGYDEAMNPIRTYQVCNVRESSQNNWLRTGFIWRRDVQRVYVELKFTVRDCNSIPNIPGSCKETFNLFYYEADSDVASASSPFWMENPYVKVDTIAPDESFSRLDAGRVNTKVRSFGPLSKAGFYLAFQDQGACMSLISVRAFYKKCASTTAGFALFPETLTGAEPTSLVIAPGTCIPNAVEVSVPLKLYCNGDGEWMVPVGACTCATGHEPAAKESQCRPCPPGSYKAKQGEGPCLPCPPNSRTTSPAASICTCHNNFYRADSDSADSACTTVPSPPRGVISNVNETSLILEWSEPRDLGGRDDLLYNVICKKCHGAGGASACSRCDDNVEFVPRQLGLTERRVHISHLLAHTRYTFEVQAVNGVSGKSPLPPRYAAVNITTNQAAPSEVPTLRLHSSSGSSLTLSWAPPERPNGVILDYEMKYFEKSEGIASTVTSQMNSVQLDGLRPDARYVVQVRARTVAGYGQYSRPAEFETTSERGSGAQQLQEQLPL

[5] = molecular target: T5, human EphB4 extracellular region-SEAP-His protein (human, UniProt P54760 16-539)
T5 construct: extracellular domain; also called Eph receptor extracellular region-SEAP-His protein; not shown: secretory alkaline phosphatase (SEAP); histidine tag
T5 sequence (looked up): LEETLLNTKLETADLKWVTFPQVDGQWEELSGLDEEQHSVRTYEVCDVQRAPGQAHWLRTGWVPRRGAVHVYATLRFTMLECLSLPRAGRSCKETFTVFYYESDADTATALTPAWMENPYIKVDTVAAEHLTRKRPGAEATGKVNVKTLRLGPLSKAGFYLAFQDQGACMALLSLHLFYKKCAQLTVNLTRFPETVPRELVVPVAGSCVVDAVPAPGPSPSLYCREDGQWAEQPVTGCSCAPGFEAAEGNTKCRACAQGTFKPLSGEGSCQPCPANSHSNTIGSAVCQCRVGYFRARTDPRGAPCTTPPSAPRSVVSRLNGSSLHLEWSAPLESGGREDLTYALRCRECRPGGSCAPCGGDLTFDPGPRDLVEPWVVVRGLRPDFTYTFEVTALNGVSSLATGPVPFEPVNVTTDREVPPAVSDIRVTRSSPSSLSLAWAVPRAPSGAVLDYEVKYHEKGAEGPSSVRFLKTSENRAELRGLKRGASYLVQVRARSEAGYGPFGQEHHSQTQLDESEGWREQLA

Measured: binding result

B1: humanized anti-EphA4 monoclonal antibody (antibody B) (antibody, human IgG2, V domains shown)
VH: QVQLVESGGGVVQPGRSLRLSCAVSGFSLTRFGVHWVRQAPGKGLEWVAVIWRGGSTDYNAAFMSRLTISKDNSKNTVYLQMNSLRAEDTAVYYCAKESLFGVYYDYGYYSMDYWGQGTTVTVSS
VL: DIQMTQSPSSLSASVGDRVTITCRASQEISGYLSWLQQKPGKAPKRLIYAASTLDSGVPSRFSGSRSGTEYTLTISSLQPEDFATYYCLQYASYPLTFGGGTKVEIKR
notes: expressed in Expi293F cells; also called humanized antibody of antibody A; HK2-42 / L1-8
no binding (tested: 10 µg/mL): [1] | [2] | [3] | [4] | [5]

From patent US20240010735A1 (EISAI R AND D MANAGEMENT, published 2024)
